From paper PMC4347215

Molecular target: recombinant CA/09 NA, thrombin-cleaved (His-tag depleted) (influenza A virus A/California/07/2009 (H1N1)pdm09) (UniProt C3W5S3)
Assay: crystal structure

recombinant CA/09 NA, thrombin-cleaved (His-tag depleted) (from UniProt C3W5S3 82-467) (enzyme)
stoichiometry N: 4
